Experimental data from US8147838B2, “Peptide” (priority 2005, dated 2012).
No end group written: not given here.

Key:
[1] = molecular target: T1, MHC class I allele B*0702 (B7) (Homo sapiens, UniProt P01889); assay: iTopia peptide binding assay, B*0702; conditions: percent of positive control peptide binding; peptide at 1.11×10^−5M
Method: (§1) The 9 mers were tested for Peptide Binding, Off Rate and Affinity using iTopia Epitope Discovery System in accordance with the manufacturer's instructions. Briefly, 96 well microtitre plates coated with MHC molecules representing different MHC alleles are used to identify candidate peptides. […] Determinations are performed in duplicate using an ELISA plate reader and included allele specific positive controls.
(§2) i) Peptide Binding—This assay measures the ability of individual peptides to bind to the MHC molecules under standardized optimal binding conditions. The assay is performed for all the test peptides across the selected MHC alleles. The test peptides identified as “binders” are characterized further in terms of affinity and dissociation experiments.
(§3) Following a period of binding under optimal conditions, excess antibody is removed and a measurement of total fluorescence taken (D).
(§4) The binding of the test peptides to the MHC molecules was performed at 1.11×10^−5M of peptide under optimal, standardised test conditions. A control peptide was run in parallel on the same plate and at the same concentration as the test peptides.
(§5) The level of binding is expressed as a percent of positive control peptide binding for each allele.

[2] = molecular target: T2, MHC class I allele A*0201 (A2) (Homo sapiens, UniProt P04439, D140Y/D185E/D98H/E176V/E277Q/G131W/G231S/I119V/I121R/I166T/I218V/L300P/L318F/N151K/N90K/P208A/P217A/Q86G/Q94H/R138H/R169H/T345S); assay: iTopia peptide binding assay, A*0201; conditions: percent of positive control peptide binding; peptide at 1.11×10^−5M
Method: as §1, §2, §3, §4, §5

[3] = molecular target: T3, MHC class I allele A*0301 (A3) (Homo sapiens, UniProt P04439); assay: iTopia peptide binding assay, A*0301; conditions: percent of positive control peptide binding; peptide at 1.11×10^−5M
Method: as §1, §2, §3, §4, §5

[4] = molecular target: T4, MHC class I allele A*0101 (A1) (Homo sapiens, UniProt P04439, A114D/A174V/A182V/D101N/D185E/E176A/E190D/L180R/Q94H/R68K/S129P/T187R/V100A/V91M/W191G); assay: iTopia peptide binding assay, A*0101; conditions: percent of positive control peptide binding; peptide at 1.11×10^−5M
Method: as §1, §2, §3, §4, §5

[5] = molecular target: T2, MHC class I allele A*0201 (A2); assay: iScore multi-parametric analysis, A*0201; assay type: binding; conditions: level of binding: >0.5, 0.25-0.5, <0.25
Method in brief: (§6)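 Multiparametric score combining half-life + ED50 of peptide–HLA class I complexes; reflects stable complex reconstitution. Ranks peptides by binding quality. A*0201 thresholds: >0.5 good, 0.25–0.5 medium, <0.25 poor.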

[6] = molecular target: T4, MHC class I allele A*0101 (A1); assay: iScore multi-parametric analysis, A*0101; assay type: binding; conditions: for iScore, MHC Class I Molecule A*0101: level of binding: >0.5, 0.25-0.5, <0.25
Method in brief: as §6

[7] = molecular target: T1, MHC class I allele B*0702 (B7); assay: iScore multi-parametric analysis, B*0702; conditions: level of binding: >0.5, 0.25-0.5, <0.25
Method in brief: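 Ranking score combining ED50 and stability half-life of peptide-MHC complexes, giving one measure of binding quality per peptide. Bands: <0.25 poor, 0.25–0.5 medium, >0.5 good quality binding.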

[8] = molecular target: T3, MHC class I allele A*0301 (A3); assay: iScore multi-parametric analysis, A*0301; assay type: binding; conditions: for iScore, MHC Class I Molecule A*0301: level of binding: >0.5, 0.25-0.5, <0.25
Method in brief: as §6

IVPPEDERQ [Peptide 92]
Peptide binding, MHC Class I Molecule B*0702 [1]: 3 % of control
Peptide binding, MHC Class I Molecule A*0201 [2]: 12 % of control
Peptide binding, MHC Class I Molecule A*0301 [3]: 3 % of control
Peptide binding, MHC Class I Molecule A*0101 [4]: 6 % of control

LNLSGSRLD [Peptide 62]
Peptide binding, MHC Class I Molecule B*0702 [1]: 7 % of control
Peptide binding, MHC Class I Molecule A*0201 [2]: 7 % of control
Peptide binding, MHC Class I Molecule A*0301 [3]: 2 % of control
Peptide binding, MHC Class I Molecule A*0101 [4]: 2 % of control

EDERQNRSF [Peptide 94]
Peptide binding, MHC Class I Molecule B*0702 [1]: 4 % of control
Peptide binding, MHC Class I Molecule A*0201 [2]: 2 % of control
Peptide binding, MHC Class I Molecule A*0301 [3]: 4 % of control
Peptide binding, MHC Class I Molecule A*0101 [4]: 0 % of control

LDNNPWVCD [Peptide 146]
Peptide binding, MHC Class I Molecule B*0702 [1]: 3 % of control
Peptide binding, MHC Class I Molecule A*0201 [2]: 0 % of control
Peptide binding, MHC Class I Molecule A*0301 [3]: 2 % of control
Peptide binding, MHC Class I Molecule A*0101 [4]: 0 % of control

PFAFSGSNA [Peptide 80]
Peptide binding, MHC Class I Molecule B*0702 [1]: 7 % of control
Peptide binding, MHC Class I Molecule A*0201 [2]: 13 % of control
Peptide binding, MHC Class I Molecule A*0301 [3]: 3 % of control
Peptide binding, MHC Class I Molecule A*0101 [4]: 0 % of control

SADLDCDPI [Peptide 170]
Peptide binding, MHC Class I Molecule B*0702 [1]: 3 % of control
Peptide binding, MHC Class I Molecule A*0201 [2]: 4 % of control
Peptide binding, MHC Class I Molecule A*0301 [3]: 4 % of control
Peptide binding, MHC Class I Molecule A*0101 [4]: 0 % of control

DCHMADMVT [Peptide 150]
Peptide binding, MHC Class I Molecule B*0702 [1]: 5 % of control
Peptide binding, MHC Class I Molecule A*0201 [2]: 7 % of control
Peptide binding, MHC Class I Molecule A*0301 [3]: 3 % of control
Peptide binding, MHC Class I Molecule A*0101 [4]: 0 % of control

DLDCDPILP [Peptide 171]
Peptide binding, MHC Class I Molecule B*0702 [1]: 3 % of control
Peptide binding, MHC Class I Molecule A*0201 [2]: 0 % of control
Peptide binding, MHC Class I Molecule A*0301 [3]: 4 % of control
Peptide binding, MHC Class I Molecule A*0101 [4]: 0 % of control

GAIFLLVLY [Peptide 184]
Peptide binding, MHC Class I Molecule B*0702 [1]: 0 % of control
Peptide binding, MHC Class I Molecule A*0201 [2]: 5 % of control
Peptide binding, MHC Class I Molecule A*0301 [3]: 5 % of control
Peptide binding, MHC Class I Molecule A*0101 [4]: 0 % of control

RDHMEGYHY [Peptide 197]
Peptide binding, MHC Class I Molecule B*0702 [1]: 5 % of control
Peptide binding, MHC Class I Molecule A*0201 [2]: 6 % of control
Peptide binding, MHC Class I Molecule A*0301 [3]: 3 % of control
Peptide binding, MHC Class I Molecule A*0101 [4]: 11 % of control

RQLDLSHNP [Peptide 73]
Peptide binding, MHC Class I Molecule B*0702 [1]: 4 % of control
Peptide binding, MHC Class I Molecule A*0201 [2]: 8 % of control
Peptide binding, MHC Class I Molecule A*0301 [3]: 2 % of control
Peptide binding, MHC Class I Molecule A*0101 [4]: 2 % of control

PPEDERQNR [Peptide 93]
Peptide binding, MHC Class I Molecule B*0702 [1]: 0 % of control
Peptide binding, MHC Class I Molecule A*0201 [2]: 2 % of control
Peptide binding, MHC Class I Molecule A*0301 [3]: 0 % of control
Peptide binding, MHC Class I Molecule A*0101 [4]: 0 % of control

AELQGLPHI [Peptide 140]
Peptide binding, MHC Class I Molecule B*0702 [1]: 0 % of control
Peptide binding, MHC Class I Molecule A*0201 [2]: 9 % of control
Peptide binding, MHC Class I Molecule A*0301 [3]: 1 % of control
Peptide binding, MHC Class I Molecule A*0101 [4]: 0 % of control

HLESLHLED [Peptide 130]
Peptide binding, MHC Class I Molecule B*0702 [1]: 2 % of control
Peptide binding, MHC Class I Molecule A*0201 [2]: 3 % of control
Peptide binding, MHC Class I Molecule A*0301 [3]: 2 % of control
Peptide binding, MHC Class I Molecule A*0101 [4]: 4 % of control

VSSSSPTSS [Peptide 15]
Peptide binding, MHC Class I Molecule B*0702 [1]: 2 % of control
Peptide binding, MHC Class I Molecule A*0201 [2]: 9 % of control
Peptide binding, MHC Class I Molecule A*0301 [3]: 2 % of control
Peptide binding, MHC Class I Molecule A*0101 [4]: 3 % of control

KGIKKWMHN [Peptide 190]
Peptide binding, MHC Class I Molecule B*0702 [1]: 6 % of control
Peptide binding, MHC Class I Molecule A*0201 [2]: 14 % of control
Peptide binding, MHC Class I Molecule A*0301 [3]: 3 % of control
Peptide binding, MHC Class I Molecule A*0101 [4]: 3 % of control

SEAARTVKC [Peptide 35]
Peptide binding, MHC Class I Molecule B*0702 [1]: 0 % of control
Peptide binding, MHC Class I Molecule A*0201 [2]: 1 % of control
Peptide binding, MHC Class I Molecule A*0301 [3]: 0 % of control
Peptide binding, MHC Class I Molecule A*0101 [4]: 5 % of control

VKCVNRNLT [Peptide 38]
Peptide binding, MHC Class I Molecule B*0702 [1]: 2 % of control
Peptide binding, MHC Class I Molecule A*0201 [2]: 3 % of control
Peptide binding, MHC Class I Molecule A*0301 [3]: 0 % of control
Peptide binding, MHC Class I Molecule A*0101 [4]: 6 % of control

GKDRLTCAY [Peptide 159]
Peptide binding, MHC Class I Molecule B*0702 [1]: 4 % of control
Peptide binding, MHC Class I Molecule A*0201 [2]: 6 % of control
Peptide binding, MHC Class I Molecule A*0301 [3]: 6 % of control
Peptide binding, MHC Class I Molecule A*0101 [4]: 3 % of control

DEVRAGAFE [Peptide 66]
Peptide binding, MHC Class I Molecule B*0702 [1]: 12 % of control
Peptide binding, MHC Class I Molecule A*0201 [2]: 9 % of control
Peptide binding, MHC Class I Molecule A*0301 [3]: 7 % of control
Peptide binding, MHC Class I Molecule A*0101 [4]: 6 % of control

AFSGSNASV [Peptide 81]
Peptide binding, MHC Class I Molecule B*0702 [1]: 14 % of control
Peptide binding, MHC Class I Molecule A*0201 [2]: 55 % of control
Peptide binding, MHC Class I Molecule A*0301 [3]: 2 % of control
Peptide binding, MHC Class I Molecule A*0101 [4]: 2 % of control

PAAGDGRLR [Peptide 5]
Peptide binding, MHC Class I Molecule B*0702 [1]: 5 % of control
Peptide binding, MHC Class I Molecule A*0201 [2]: 5 % of control
Peptide binding, MHC Class I Molecule A*0301 [3]: 4 % of control
Peptide binding, MHC Class I Molecule A*0101 [4]: 4 % of control

LASNHFLYL [Peptide 109]
iScore, MHC Class I Molecule A*0201 [5]: 0.337
iScore (iTopia), A*0101 ([6]; integrates half-life and ED50): 0.12
iScore, MHC Class I Molecule A*0101 [6]: 0.12
iScore, MHC Class I Molecule B*0702 [7]: 0
iScore (iTopia), A*0301 ([8]; integrates half-life and ED50): 0.224
iScore, MHC Class I Molecule A*0301 [8]: 0.224

VSLTYVSFR [Peptide 124]
iScore, MHC Class I Molecule A*0201 [5]: 0
iScore, MHC Class I Molecule A*0101 [6]: 0
iScore, MHC Class I Molecule B*0702 [7]: 0
iScore, MHC Class I Molecule A*0301 [8]: 0.025

LVELILNHI [Peptide 88]
iScore, MHC Class I Molecule A*0201 [5]: 0.109
iScore, MHC Class I Molecule A*0101 [6]: 0
iScore, MHC Class I Molecule B*0702 [7]: 0
iScore, MHC Class I Molecule A*0301 [8]: 0

C[C@H](NC(=O)[C@H](C)NC(=O)[C@@H]1CCCN1C(=O)CNC(=O)[C@H](CCCNC(=N)N)NC(=O)[C@H](CO)NC(=O)[C@H](CS)NC(=O)CNC(=O)CN)C(=O)O [Peptide 2]
iScore, MHC Class I Molecule A*0201 [5]: 0.016
iScore, MHC Class I Molecule A*0101 [6]: 0
iScore, MHC Class I Molecule B*0702 [7]: 0.012
iScore, MHC Class I Molecule A*0301 [8]: 0
